In the assay the target is His-tagged RBD of SARS-CoV-2 (SARS-CoV-2, UniProt P0DTC2). As to the kind of experiment: SPR.

B1: REG10987 (antibody, V domains shown)
VH: QVQLVESGGGVVQPGRSLRLSCAASGFTFSNYAMYWVRQAPGKGLEWVAVISYDGSNKYYADSVKGRFTISRDNSKNTLYLQMNSLRTEDTAVYYCASGSDYGDYLLVYWGQGTLVTVSS
VL: QSALTQPASVSGSPGQSITISCTGTSSDVGGYNYVSWYQQHPGKAPKLMIYDVSKRPSGVSNRFSGSKSGNTASLTISGLQSEDEADYYCNSLTSISTWVFGGGTKLTVL
For the molecule B1, the binding result is reported as “binds”.

B2: REG10933 (antibody, V domains shown)
VH: QVQLVESGGGLVKPGGSLRLSCAASGFTFSDYYMSWIRQAPGKGLEWVSYITYSGSTIYYADSVKGRFTISRDNAKSSLYLQMNSLRAEDTAVYYCARDRGTTMVPFDYWGQGTLVTVSS
VL: DIQMTQSPSSLSASVGDRVTITCQASQDITNYLNWYQQKPGKAPKLLIYAASNLETGVPSRFSGSGSGTDFTFTISGLQPEDIATYYCQQYDNLPLTFGGGTKVEIK
Regarding B2, the binding result is “binds”.
